In patent US20220386594A1 (IBI AG INNOVATIVE BIO INSECTICIDES, published 2022):

T1: Helicoverpa armigera chitin deacetylase (Helicoverpa armigera)
T1 construct: the tag is not part of the printed entry; also called CDA; target CDA antigen
T1 chain: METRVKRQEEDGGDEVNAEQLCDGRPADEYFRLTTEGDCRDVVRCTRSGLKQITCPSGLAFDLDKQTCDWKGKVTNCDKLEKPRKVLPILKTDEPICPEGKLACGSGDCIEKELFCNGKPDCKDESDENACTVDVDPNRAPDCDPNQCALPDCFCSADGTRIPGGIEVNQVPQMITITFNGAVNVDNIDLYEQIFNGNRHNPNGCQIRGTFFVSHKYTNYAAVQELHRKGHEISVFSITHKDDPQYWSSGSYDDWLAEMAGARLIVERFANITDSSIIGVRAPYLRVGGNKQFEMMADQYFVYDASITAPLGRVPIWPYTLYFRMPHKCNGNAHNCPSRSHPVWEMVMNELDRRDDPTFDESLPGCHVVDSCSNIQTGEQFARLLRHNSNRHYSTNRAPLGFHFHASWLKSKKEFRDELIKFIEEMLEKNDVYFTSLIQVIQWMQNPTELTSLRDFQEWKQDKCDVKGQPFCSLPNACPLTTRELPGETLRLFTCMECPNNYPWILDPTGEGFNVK

T2: Helicoverpa armigera cytochrome p450 monooxygenase (Helicoverpa armigera, UniProt Q95031 23-504)
T2 construct: the tag is not part of the printed entry; also called target P450 antigen
T2 chain: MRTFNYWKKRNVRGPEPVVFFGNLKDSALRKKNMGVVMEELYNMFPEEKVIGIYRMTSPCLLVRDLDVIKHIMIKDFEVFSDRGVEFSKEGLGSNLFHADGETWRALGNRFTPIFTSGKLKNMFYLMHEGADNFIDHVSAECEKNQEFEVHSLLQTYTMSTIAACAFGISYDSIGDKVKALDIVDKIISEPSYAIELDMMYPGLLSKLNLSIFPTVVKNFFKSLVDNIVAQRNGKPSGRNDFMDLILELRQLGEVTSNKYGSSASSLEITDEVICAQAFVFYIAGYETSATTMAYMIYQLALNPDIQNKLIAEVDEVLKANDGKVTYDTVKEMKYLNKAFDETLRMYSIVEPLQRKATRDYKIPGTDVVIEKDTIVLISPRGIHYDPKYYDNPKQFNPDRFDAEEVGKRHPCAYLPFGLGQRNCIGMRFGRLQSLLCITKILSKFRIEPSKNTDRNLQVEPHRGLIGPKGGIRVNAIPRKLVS

T3: Helicoverpa armigera V-ATPase subunit c (Helicoverpa armigera)
T3 construct: also called V-ATPases Subunit C; ATPase V subunit c
T3 chain: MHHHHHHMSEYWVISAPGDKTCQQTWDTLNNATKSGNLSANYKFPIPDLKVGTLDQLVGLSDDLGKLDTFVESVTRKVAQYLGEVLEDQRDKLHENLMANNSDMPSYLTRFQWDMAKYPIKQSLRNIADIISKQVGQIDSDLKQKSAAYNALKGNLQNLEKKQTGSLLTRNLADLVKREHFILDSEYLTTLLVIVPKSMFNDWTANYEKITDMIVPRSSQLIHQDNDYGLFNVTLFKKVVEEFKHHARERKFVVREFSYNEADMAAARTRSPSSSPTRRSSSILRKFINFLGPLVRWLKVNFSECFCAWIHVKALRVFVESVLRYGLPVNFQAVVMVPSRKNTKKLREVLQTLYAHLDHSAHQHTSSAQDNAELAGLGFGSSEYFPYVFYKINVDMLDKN

B1: CDA10 (VHH)
VHH: QVQLQESGGGLVQTGESLRLSCAASGRTLSSYTMGWFRQAPGKEREIVAASSWSGGRTYYADSVKGRFTMSRNNAENTVYLQMNSLNPEDTAVYYCAADSSRAPRTYNYWGQGTQVTVSS
notes: Llama nanobody, His-tagged, expressed in E. coli SHuffle T7; also called anti-CDA nanobody CDA10
B2: P45003A (VHH)
VHH: QVQLQESGGGLVQAGDSLRLSCVASKRSFSSHAMGWFRQAPGKAREFVATISWNSGSTFYSDSSRGRFTISRDNGKNTLYLQMNSLKPEDTAVYYCAAASGRGITASDFRYDAWGQGTQVTVSS
notes: Llama nanobody, His-tagged, expressed in E. coli SHuffle T7; also called anti-P450 nanobody P45003A
B3: P45004 (VHH)
VHH: QVQLQESGGGLVQAGGSLRLSCAASGRTFSRINMGWFRQAPGKEREFVAVISWNSIADYADSVKARFTISRDNAKNTVYLQMNSLKPEDTAVYYCAASAPFRSKNPTLYLYWGRGTQVTVSS
notes: Llama nanobody, His-tagged, expressed in E. coli SHuffle T7; also called anti-P450 nanobody P45004
B4: P45001A (VHH)
VHH: QVQLQESGGGLVQTGGSLRLSCAASGRTSRSYAMGWFRQAPGKERELVADIAWSDGRIYYSDSVKGRFTISRDNAKNTVYLEIDSLKPGDTAVYYCASRARGTVLYNYWGQGTQVTVSS
notes: Llama nanobody, His-tagged, expressed in E. coli SHuffle T7; also called anti-P450 nanobody P45001A
B5: VAT0101A (VHH)
VHH: QVQLQESGGGLVQAGGSLRLSCAASGSTFSGYIMSWFRQPPGKERELVAAITYVGSTYVEDSVKGRFTISRDNAKNTVSLQMNSLKPEDTAVYYCRAREGEQLDFWGQGTQVTVSS
notes: Llama nanobody, His-tagged, expressed in E. coli SHuffle T7; also called anti-VAT nanobody VAT0101A
B6: CDA05 (VHH)
VHH: QVQLQESGGGLVQPGGSLRLSCTASGRTVSNYGMAWFRQVAGKERAFVAAINNRGDSKYYAESVKGRFTIARDNAKNTVYLQMNVLKPEDTAVYYCAADRRSLVRYEYNYWGQGTQVTVSS
notes: Llama nanobody, His-tagged, expressed in E. coli SHuffle T7; also called CDA5; anti-CDA nanobody CDA05
B7: CDA07A (VHH)
VHH: QVQLQESGGGLVQAGGSLRLSCVASGRTFGNYGLAWFRQPPGKEREFVAAINNRGGNTYYADSVKGRFTISRDNAANTLYLQMSSLKPEDTAVYYCAADRTSLHSYRYTYWGQGTQVTVSS
notes: Llama nanobody, His-tagged, expressed in E. coli SHuffle T7; also called CDA7a; CDA7A
B8: CDA01A (VHH)
VHH: QVQLQESGGGLVQAGGSLRLSCAASGRTFNTYAMGWFRQAPGKEREFVAAMNRDGSTVLYADSVKGRFAISKDNAKNTGYLQMNSLKPEDTAIYYCAANARYSDYTDGQSFVSWGQGTQVTVSS
notes: Llama nanobody, His-tagged, expressed in E. coli SHuffle T7; also called CDA1a; anti-CDA nanobody CDA01A

What was measured:
[1] = target: T1, Helicoverpa armigera chitin deacetylase; experiment: ELISA, plate coated with 10 ug/ml target protein, 2 ug/ml nanobody, anti-VHH-HRP, A450
[2] = target: T2, Helicoverpa armigera cytochrome p450 …; experiment: as above
[3] = target: T3, Helicoverpa armigera V-ATPase subunit c; experiment: ELISA, plate coated with the target antigen

Binder	binding result [1]	binding result [2]	other results
B1	binds	–	–
B2	–	binds	–
B3	–	binds	–
B4	–	binds	–
B5	–	–	binding result [3]: binds
B6	binds	–	–
B7	binds	–	–
B8	binds	–	–
